Source: publication PMC5985231

Target: insulin receptor extracellular domain, short isoform (IR-A)
Test: SPR

Kd: > 122 nM
Substance: insulin (from UniProt P01308 25-54; P01308 90-110) (ligand)
